Biological target: the molecule itself
Experiment: cryo-EM structure

B1: OpuA polypeptide with the nucleotide-binding domain (NBD) fused to a tandem CBS domain, E190Q (natural protein, Lactococcus lactis, UniProt Q9KIF7 1-408, looked up)
chain: MPVKIKIEHLTKIFGKRIKTALTMVEKGEPKNEILKKTGATVGVYDTNFEINEGEIFVIMGLSGSGKSTLLRLLNRLIEPTSGKIFIDNQDVATLNKEDLLQVRRKTMSMVFQNFGLFPHRTILENTEYGLEVQNVPKEERRKRAEKALDNANLLDFKDQYPKQLSGGMQQRVGLARALANDPEILLMDQAFSALDPLIRREMQDELLELQAKFQKTIIFVSHDLNEALRIGDRIAIMKDGKIMQIGTGEEILTNPANDYVKTFVEDVDRAKVITAENIMIPALTTNIDVDGPSVALKKMKTEEVSSLMAVDKKRQFRGVVTSEQAIAARKNNQPLKDVMTTDVGTVSKEMLVRDILPIIYDAPTPLAVVDDNGFLKGVLIRGSVLEALADIPDEDEVEEIEKEEENK
B1: binds.

From article PMC7673798 (Science Advances, 2020)
